This is an account of results in patent US11278600B2, “Human alpha-galactosidase variants” (Codexis, Inc., priority 2014, dated 2022).

Holding throughout (format): biochemical
The nature of data set [1]: HTP-analysis of yeast culture supernatants, no challenge (MUGal hydrolysis). The conditions noted are these: activity of the variant/activity of WT GLA (SEQ ID NO: 5), yeast supernatant. The gist of the method:
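GLA variants expressed in yeast INVSc1, secreted into SD-Ura broth over 66-84 h at 30° C; clarified supernatants tested without challenge. Supernatant mixed with McIlvaine buffer pH 4.8 and 2 mM MUGal (citrate/KCl, pH 4.6), 37° C for 30-180 min, carbonate-quenched, fluorescence Ex 355/Em 448 nm.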

Data set [2] is described as follows: HTP-analysis of supernatants pretreated with acid (MUGal hydrolysis). The settings on record: challenge at pH 4.2; activity of the variant/activity of WT GLA (SEQ ID NO: 5); yeast supernatant. The gist of the method: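 Fluorescence of MUGal hydrolysis (Ex. 355 nm, Em. 448 nm) is read after sodium carbonate quench. The enzyme source is INVSc1 yeast culture supernatant, first exposed to pH 3.3-4.3 McIlvaine buffer at 37° C. for 1-3 h, then reacted at pH 4.8 for 30-180 minutes.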

Data set [3] can be described thus: HTP-analysis of supernatants pretreated with base (MUGal hydrolysis). The settings on record: challenge at pH 7.1; activity of the variant/activity of WT GLA (SEQ ID NO: 5); yeast supernatant. The gist of the method: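 GLA variants were secreted by transformed INVSc1 yeast grown 66-84 h at 30° C. Supernatants were exposed to neutral-to-basic buffers (pH 7.0-9.7) at 37° C for 1-18 h, then assayed with MUGal in acidic citrate/McIlvaine buffer, with fluorescence read after quenching.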

B1: 163 (protein)
chain: LDNGLARTPTMGWLHWERFMCNLDCQEEPDDCISEKLFMEMAELMVSEGWKDAGYEYLCIDDCWMAPQRDSEGRLQADPQRFPHGIRQLANYVHSKGLKLGIYADVGNKTCAGFPGSFGYYDIDAQTFADWGVDLLKFDGCYCDSLENLADGYKHMSLALNRTGRSIVYSCEWPLYMWPFQKPNYTEIRQYCNHWRNFADIDDSWKSIKSILDWTSFNQERIVDVAGPGGWNDPDMLVIGNFGLSWNQQVTQMALWAIMAAPLFMSNDLRHISPQAKALLQDKDVIAINQDPLGKQGYQLRQGDNFEVWERPLSGLAWAVAMINRQEIGGPRSYTIAVASLGKGVACNPACFITQLLPVKRKLGFYEWTSRLRSHINPTGTVLLQLENTMQMSKDLLL
modifications: Synthetic Polypeptide sequence of Variant No. 163 of mature Human GLA
B1: the “Relative Activity of GLA Variants After No Challenge (NC)” value in data set [1] is listed as “+ (+ = 0.5 to 1.5 relative activity over WT GLA (SEQ ID NO: 5))”. For the same molecule, the “Relative Activity of GLA Variants After Challenge at pH 4.2” value (“Relative Activity … at pH 4.2” below) in data set [2] is “+ (+ = 0.5 to 1.5 relative activity over WT GLA (SEQ ID NO: 5))”. The “Relative Activity of GLA Variants After Challenge at pH 7.1” value (from here on “Relative Activity … at pH 7.1”) in data set [3] is listed as “+ (+ = 0.5 to 1.5 relative activity over WT GLA (SEQ ID NO: 5))”.

B2: 168 (protein)
chain: LDNGLARTPTMGWLHWERFMCNLDCQEEPDSCISEKLFMEMAELMVSEGWKDAGYEYLCIDDCWMAPQRDSEGRLQADPQRFPHGIRQLANYVHSKGLKLGIYADVGNKTCAGFPGSFGYYDIDAQTFADWGVDLLKFDGCYCDSLENLADGYKHMSLALNRTGRSIVYSCEWPLYMWPFQKPNYTEIRQYCNHWRNFADIDDSWKSIKSILDWTSFNQERIVDVAGPGGWNDPDMLVIGNFGLSWNQQVTQMALWAIMAAPLFMSNDLRHISPQAKALLQDKDVIAINQDPLGKQGYQLRQGDNFEVWERPLSGLAWAVAMINRQEIGGPRSYTIAVASLGKGVACNPACFITQLLPVKRKLGFYEWTSRLRMHINPTGTVLLQLENTMQMSKDLLL
modifications: Synthetic Polypeptide sequence of Variant No. 168 of mature Human GLA
Regarding B2, the “Relative Activity of GLA Variants After No Challenge (NC)” value in data set [1] is “++ (++ = >1.5 to 2.5 relative activity over WT GLA (SEQ ID NO: 5))”. The “Relative Activity … at pH 4.2” value in data set [2] is recorded as “++ (++ = >1.5 to 2.5 relative activity over WT GLA (SEQ ID NO: 5))”. Besides, the “Relative Activity … at pH 7.1” value in data set [3] was “++ (++ = >1.5 to 2.5 relative activity over WT GLA (SEQ ID NO: 5))”.

B3: 170 (protein)
chain: LDNGLARTPTMGWLHWERFMCNLDCQEEPDSCISEKLFMEMAELMVSEGWKDAGYEYLCIDDCWMAPQRDSEGRLQADPQRFPHGIRQLANYVHSKGLKLGIYADVGNKTCAGFPGSFGYYDIDAQTFADWGVDLLKFDGCYCDSLENLADGYKHMSLALNRTGRSIVYSCEWPLYMWPFQKPNYTEIRQYCNHWRNFADIDDSWKSIKSILDWTSFNQERIVDVAGPGGWNDPDMLVIGNFGLSWNQQVTQMALWAIMAAPLFMSNDLRHISPQAKALLQDKDVIAINQDPLGKQGYQLRQGDNFEVWERPLSGLAWAVAMINRQEIGGPRSYTIAVASLGKGVACNPACFITQLLPVKRKLGFYEWTSRLRSHINPTGTVLLQLENTMQMEKDLLL
modifications: Synthetic Polypeptide sequence of Variant No. 170 of mature Human GLA
Take B3: the “Relative Activity of GLA Variants After No Challenge (NC)” value in data set [1] is “++ (++ = >1.5 to 2.5 relative activity over WT GLA (SEQ ID NO: 5))”. Further, in data set [2], the “Relative Activity … at pH 4.2” value was “++ (++ = >1.5 to 2.5 relative activity over WT GLA (SEQ ID NO: 5))”. Also, the “Relative Activity … at pH 7.1” value in data set [3] was “++ (++ = >1.5 to 2.5 relative activity over WT GLA (SEQ ID NO: 5))”.

B4: 164 (protein)
chain: LDNGLARTPTMGWLHWERFMCNLDCQEEPDSCIDEKLFMEMAELMVSEGWKDAGYEYLCIDDCWMAPQRDSEGRLQADPQRFPHGIRQLANYVHSKGLKLGIYADVGNKTCAGFPGSFGYYDIDAQTFADWGVDLLKFDGCYCDSLENLADGYKHMSLALNRTGRSIVYSCEWPLYMWPFQKPNYTEIRQYCNHWRNFADIDDSWKSIKSILDWTSFNQERIVDVAGPGGWNDPDMLVIGNFGLSWNQQVTQMALWAIMAAPLFMSNDLRHISPQAKALLQDKDVIAINQDPLGKQGYQLRQGDNFEVWERPLSGLAWAVAMINRQEIGGPRSYTIAVASLGKGVACNPACFITQLLPVKRKLGFYEWTSRLRSHINPTGTVLLQLENTMQPSKDLLL
modifications: Synthetic Polypeptide sequence of Variant No. 164 of mature Human GLA
Take B4: in data set [1], the “Relative Activity of GLA Variants After No Challenge (NC)” value was “+ (+ = 0.5 to 1.5 relative activity over WT GLA (SEQ ID NO: 5))”. The “Relative Activity … at pH 4.2” value in data set [2] is “− (− = <0.5 relative activity to WT GLA (SEQ ID NO: 5))”. Also, the “Relative Activity … at pH 7.1” value in data set [3] is recorded as “− (− = <0.5 relative activity to WT GLA (SEQ ID NO: 5))”.

B5: 166 (protein)
chain: LDNGLARTPTMGWLHWERFMCNLDCQEEPDSCIHEKLFMEMAELMVSEGWKDAGYEYLCIDDCWMAPQRDSEGRLQADPQRFPHGIRQLANYVHSKGLKLGIYADVGNKTCAGFPGSFGYYDIDAQTFADWGVDLLKFDGCYCDSLENLADGYKHMSLALNRTGRSIVYSCEWPLYMWPFQKPNYTEIRQYCNHWRNFADIDDSWKSIKSILDWTSFNQERIVDVAGPGGWNDPDMLVIGNFGLSWNQQVTQMALWAIMAAPLFMSNDLRHISPQAKALLQDKDVIAINQDPLGKQGYQLRQGDNFEVWERPLSGLAWAVAMINRQEIGGPRSYTIAVASLGKGVACNPACFITQLLPVKRKLGFYEWTSRLRSHINPTGTVLLQLENTRQMSKDLLL
modifications: Synthetic Polypeptide sequence of Variant No. 166 of mature Human GLA
As to B5, the “Relative Activity of GLA Variants After No Challenge (NC)” value in data set [1] is “++ (++ = >1.5 to 2.5 relative activity over WT GLA (SEQ ID NO: 5))”. In addition, the “Relative Activity … at pH 4.2” value in data set [2] is reported as “+ (+ = 0.5 to 1.5 relative activity over WT GLA (SEQ ID NO: 5))”. In data set [3], the “Relative Activity … at pH 7.1” value was “+ (+ = 0.5 to 1.5 relative activity over WT GLA (SEQ ID NO: 5))”.

B6: 165 (protein)
chain: LDNGLARTPTMGWLHWERFMCNLDCQEEPDSCIGEKLFMEMAELMVSEGWKDAGYEYLCIDDCWMAPQRDSEGRLQADPQRFPHGIRQLANYVHSKGLKLGIYADVGNKTCAGFPGSFGYYDIDAQTFADWGVDLLKFDGCYCDSLENLADGYKHMSLALNRTGRSIVYSCEWPLYMWPFQKPNYTEIRQYCNHWRNFADIDDSWKSIKSILDWTSFNQERIVDVAGPGGWNDPDMLVIGNFGLSWNQQVTQMALWAIMAAPLFMSNDLRHISPQAKALLQDKDVIAINQDPLGKQGYQLRQGDNFEVWERPLSGLAWAVAMINRQEIGGPRSYTIAVASLGKGVACNPACFITQLLPVKRKLGFYEWTSRLRSHINPTGTVLLQLENTMQMSKDLLL
modifications: Synthetic Polypeptide sequence of Variant No. 165 of mature Human GLA
As to B6, in data set [1], the “Relative Activity of GLA Variants After No Challenge (NC)” value is recorded as “+ (+ = 0.5 to 1.5 relative activity over WT GLA (SEQ ID NO: 5))”. Moreover, the “Relative Activity … at pH 4.2” value in data set [2] was “− (− = <0.5 relative activity to WT GLA (SEQ ID NO: 5))”. Also, the “Relative Activity … at pH 7.1” value in data set [3] is “− (− = <0.5 relative activity to WT GLA (SEQ ID NO: 5))”.

B7: 169 (protein)
chain: LDNGLARTPTMGWLHWERFMCNLDCQEEPDSCISEKLFMEMAELMVSEGWKDAGYEYLCIDDCWMAPQRDSEGRLQADPQRFPHGIRQLANYVHSKGLKLGIYADVGNKTCAGFPGSFGYYDIDAQTFADWGVDLLKFDGCYCDSLENLADGYKHMSLALNRTGRSIVYSCEWPLYMWPFQKPNYTEIRQYCNHWRNFADIDDSWKSIKSILDWTSFNQERIVDVAGPGGWNDPDMLVIGNFGLSWNQQVTQMALWAIMAAPLFMSNDLRHISPQAKALLQDKDVIAINQDPLGKQGYQLRQGDNFEVWERPLSGLAWAVAMINRQEIGGPRSYTIAVASLGKGVACNPACFITQLLPVKRKLGFYEWTSRLRTHINPTGTVLLQLENTMQMSKDLLL
modifications: Synthetic Polypeptide sequence of Variant No. 169 of mature Human GLA
For B7, in data set [1], the “Relative Activity of GLA Variants After No Challenge (NC)” value was “++ (++ = >1.5 to 2.5 relative activity over WT GLA (SEQ ID NO: 5))”. The “Relative Activity … at pH 4.2” value in data set [2] is on record as “++ (++ = >1.5 to 2.5 relative activity over WT GLA (SEQ ID NO: 5))”. Further, the “Relative Activity … at pH 7.1” value in data set [3] is “++ (++ = >1.5 to 2.5 relative activity over WT GLA (SEQ ID NO: 5))”.

B8: 167 (protein)
chain: LDNGLARTPTMGWLHWERFMCNLDCQEEPDSCIREKLFMEMAELMVSEGWKDAGYEYLCIDDCWMAPQRDSEGRLQADPQRFPHGIRQLANYVHSKGLKLGIYADVGNKTCAGFPGSFGYYDIDAQTFADWGVDLLKFDGCYCDSLENLADGYKHMSLALNRTGRSIVYSCEWPLYMWPFQKPNYTEIRQYCNHWRNFADIDDSWKSIKSILDWTSFNQERIVDVAGPGGWNDPDMLVIGNFGLSWNQQVTQMALWAIMAAPLFMSNDLRHISPQAKALLQDKDVIAINQDPLGKQGYQLRQGDNFEVWERPLSGLAWAVAMINRQEIGGPRSYTIAVASLGKGVACNPACFITQLLPVKRKLGFYEWTSRLRSHINPTGTVLLQLENTMQMSKDLLL
modifications: Synthetic Polypeptide sequence of Variant No. 16 of mature Human GLA
For the molecule B8, the “Relative Activity of GLA Variants After No Challenge (NC)” value in data set [1] is given as “+ (+ = 0.5 to 1.5 relative activity over WT GLA (SEQ ID NO: 5))”. The “Relative Activity … at pH 4.2” value in data set [2] is “+ (+ = 0.5 to 1.5 relative activity over WT GLA (SEQ ID NO: 5))”. Besides, the “Relative Activity … at pH 7.1” value in data set [3] is recorded as “+ (+ = 0.5 to 1.5 relative activity over WT GLA (SEQ ID NO: 5))”.
